# Data as given in the MegaScale stability set (Tsuboyama et al. 2023).
# B1: 5KPH (parent)
# chain: EEKRQVKQVAKEKLLEQSPNSKVQVRRVQKQGNTIRVELELRTNGKKENYTVEVERQGNTWTVKRITRT
# Variants of: B1
# Experiment: folding stability dG (cDNA display proteolysis); higher = more stable
# Conditions: PBS, room temperature
row,Variant,folding stability dG [kJ/mol]
1,EEKRQVKQVAKEKLLEQSPNSKVQVRRVQKQGNTIRVELELRTNGKKENYTVEVERQGNTVTVKRITRT [W61V],12.1
2,EEKRQVKQVAKEKLLEQSPNSKVQVRRVQKQGNTIRVELELRTNGKKENYTVEVERQGNTYTVKRITRT [W61Y],16.9
3,EEKRQVKQVAKEKLLEQSPNSKVQVRRVQKQGNTIRVELELRTNGKKENYTVEVERQGNTWTPKRITRT [V63P],11.7
4,EEKRQVKQVAKEKLLEQSPNSKVQVRRVQKQGNTIRVELELRTNGKKENYTVEVERQGNTWTMKRITRT [V63M],8.6
5,EEKRQVKQVAKEKLLEQSPNSKVQVRRVQKQGNTIRVELELRTNGKKENYTVEVERQGNTWTGKRITRT [V63G],5.67
6,EEKRQVKQVAKEKLLEQSPNSKVQVRRVQKQGNTIRVELELRTNGKKENYTVEVERQGNTWTSKRITRT [V63S],7.57
7,EEKRQVKQVAKEKLLEQSPNSKVQVRRVQKQGNTIRVELELRTNGKKENYTVEVERQGNTWTHKRITRT [V63H],4.94
8,EEKRQVKQVAKEKLLEQSPNSKVQVRRVQKQGNTIRVELELRTNGKKENYTVEVERQGNTWTFKRITRT [V63F],11.6
9,EEKRQVKQVAKEKLLEQSPNSKVQVRRVQKQGNTIRVELELRTNGKKENYTVEVERQGNTWTTKRITRT [V63T],10.5
10,EEKRQVKQVAKEKLLEQSPNSKVQVRRVQKQGNTIRVELELRTNGKKENYTVEVERQGNTWTQKRITRT [V63Q],4.87
11,EEKRQVKQVAKEKLLEQSPNSKVQVRRVQKQGNTIRVELELRTNGKKENYTVEVERQGNTWTCKRITRT [V63C],12.4
12,EEKRQVKQVAKEKLLEQSPNSKVQVRRVQKQGNTIRVELELRTNGKKENYTVEVERQGNTWTAKRITRT [V63A],12.6
13,EEKRQVKQVAKEKLLEQSPNSKVQVRRVQKQGNTIRVELELRTNGKKENYTVEVERQGNTWTLKRITRT [V63L],12
14,EEKRQVKQVAKEKLLEQSPNSKVQVRRVQKQGNTIRVELELRTNGKKENYTVEVERQGNTWTWKRITRT [V63W],8.68
15,EEKRQVKQVAKEKLLEQSPNSKVQVRRVQKQGNTIRVELELRTNGKKENYTVEVERQGNTWTRKRITRT [V63R],3.19
16,EEKRQVKQVAKEKLLEQSPNSKVQVRRVQKQGNTIRVELELRTNGKKENYTVEVERQGNTWTIKRITRT [V63I],14.5
17,EEKRQVKQVAKEKLLEQSPNSKVQVRRVQKQGNTIRVELELRTNGKKENYTVEVERQGNTWTEKRITRT [V63E],5.26
18,EEKRQVKQVAKEKLLEQSPNSKVQVRRVQKQGNTIRVELELRTNGKKENYTVEVERQGNTWTKKRITRT [V63K],1.95
19,EEKRQVKQVAKEKLLEQSPNSKVQVRRVQKQGNTIRVELELRTNGKKENYTVEVERQGNTWTDKRITRT [V63D],4
20,EEKRQVKQVAKEKLLEQSPNSKVQVRRVQKQGNTIRVELELRTNGKKENYTVEVERQGNTWTNKRITRT [V63N],2.12

row,Variant,folding stability dG [kJ/mol]
1,EEKRQVKQVAKEKLLEQSPNSKVQVRRVQKQGNTIRVELELRTNGKKENYTVEVERQGNTWQVKRITRT [T62Q],16.4
2,EEKRQVKQVAKEKLLEQSPNSKVQVRRVQKQGNTIRVELELRTNGKKENYTVEVERQGNTWCVKRITRT [T62C],14.6
3,EEKRQVKQVAKEKLLEQSPNSKVQVRRVQKQGNTIRVELELRTNGKKENYTVEVERQGNTWSVKRITRT [T62S],15.7
4,EEKRQVKQVAKEKLLEQSPNSKVQVRRVQKQGNTIRVELELRTNGKKENYTVEVERQGNTWKVKRITRT [T62K],16.6
5,EEKRQVKQVAKEKLLEQSPNSKVQVRRVQKQGNTIRVELELRTNGKKENYTVEVERQGNTWEVKRITRT [T62E],16
6,EEKRQVKQVAKEKLLEQSPNSKVQVRRVQKQGNTIRVELELRTNGKKENYTVEVERQGNTWVVKRITRT [T62V],17.9
7,EEKRQVKQVAKEKLLEQSPNSKVQVRRVQKQGNTIRVELELRTNGKKENYTVEVERQGNTWPVKRITRT [T62P],7.5
8,EEKRQVKQVAKEKLLEQSPNSKVQVRRVQKQGNTIRVELELRTNGKKENYTVEVERQGNTWRVKRITRT [T62R],16.3
9,EEKRQVKQVAKEKLLEQSPNSKVQVRRVQKQGNTIRVELELRTNGKKENYTVEVERQGNTWYVKRITRT [T62Y],19.1
10,EEKRQVKQVAKEKLLEQSPNSKVQVRRVQKQGNTIRVELELRTNGKKENYTVEVERQGNTWMVKRITRT [T62M],16.6
11,EEKRQVKQVAKEKLLEQSPNSKVQVRRVQKQGNTIRVELELRTNGKKENYTVEVERQGNTWDVKRITRT [T62D],13.1
12,EEKRQVKQVAKEKLLEQSPNSKVQVRRVQKQGNTIRVELELRTNGKKENYTVEVERQGNTWLVKRITRT [T62L],16.9
13,EEKRQVKQVAKEKLLEQSPNSKVQVRRVQKQGNTIRVELELRTNGKKENYTVEVERQGNTWIVKRITRT [T62I],17.8
14,EEKRQVKQVAKEKLLEQSPNSKVQVRRVQKQGNTIRVELELRTNGKKENYTVEVERQGNTWNVKRITRT [T62N],15.2
15,EEKRQVKQVAKEKLLEQSPNSKVQVRRVQKQGNTIRVELELRTNGKKENYTVEVERQGNTWGVKRITRT [T62G],14.5
16,EEKRQVKQVAKEKLLEQSPNSKVQVRRVQKQGNTIRVELELRTNGKKENYTVEVERQGNTWWVKRITRT [T62W],17.7
17,EEKRQVKQVAKEKLLEQSPNSKVQVRRVQKQGNTIRVELELRTNGKKENYTVEVERQGNTWFVKRITRT [T62F],17.7
18,EEKRQVKQVAKEKLLEQSPNSKVQVRRVQKQGNTIRVELELRTNGKKENYTVEVERQGNTWHVKRITRT [T62H],16.4
19,EEKRQVKQVAKEKLLEQSPNSKVQVRRVQKQGNTIRVELELRTNGKKENYTVEVERQGNTWAVKRITRT [T62A],17
